Test results as given in publication PMC9302817, “VEGF receptor heterodimers and homodimers are differentially expressed in neuronal and endothelial cell types” (PLoS ONE, 2022).

B1: VEGFR1 (mouse, endogenous in MAEC, MVEC, trigeminal ganglion neurons and mouse tissues) (receptor, UniProt P35969 23-1333, looked up)
chain: YGSGSKLKVPELSLKGTQHVMQAGQTLFLKCRGEAAHSWSLPTTVSQEDKRLSITPPSACGRDNRQFCSTLTLDTAQANHTGLYTCRYLPTSTSKKKKAESSIYIFVSDAGSPFIEMHTDIPKLVHMTEGRQLIIPCRVTSPNVTVTLKKFPFDTLTPDGQRITWDSRRGFIIANATYKEIGLLNCEATVNGHLYQTNYLTHRQTNTILDVQIRPPSPVRLLHGQTLVLNCTATTELNTRVQMSWNYPGKATKRASIRQRIDRSHSHNNVFHSVLKINNVESRDKGLYTCRVKSGSSFQSFNTSVHVYEKGFISVKHRKQPVQETTAGRRSYRLSMKVKAFPSPEIVWLKDGSPATLKSARYLVHGYSLIIKDVTTEDAGDYTILLGIKQSRLFKNLTATLIVNVKPQIYEKSVSSLPSPPLYPLGSRQVLTCTVYGIPRPTITWLWHPCHHNHSKERYDFCTENEESFILDPSSNLGNRIESISQRMTVIEGTNKTVSTLVVADSQTPGIYSCRAFNKIGTVERNIKFYVTDVPNGFHVSLEKMPAEGEDLKLSCVVNKFLYRDITWILLRTVNNRTMHHSISKQKMATTQDYSITLNLVIKNVSLEDSGTYACRARNIYTGEDILRKTEVLVRDSEAPHLLQNLSDYEVSISGSTTLDCQARGVPAPQITWFKNNHKIQQEPGIILGPGNSTLFIERVTEEDEGVYRCRATNQKGAVESAAYLTVQGTSDKSNLELITLTCTCVAATLFWLLLTLFIRKLKRSSSEVKTDYLSIIMDPDEVPLDEQCERLPYDASKWEFARERLKLGKSLGRGAFGKVVQASAFGIKKSPTCRTVAVKMLKEGATASEYKALMTELKILTHIGHHLNVVNLLGACTKQGGPLMVIVEYCKYGNLSNYLKSKRDLFCLNKDAALHMELKKESLEPGLEQGQKPRLDSVSSSSVTSSSFPEDRSVSDVEGDEDYSEISKQPLTMEDLISYSFQVARGMEFLSSRKCIHRDLAARNILLSENNVVKICDFGLARDIYKNPDYVRRGDTRLPLKWMAPESIFDKVYSTKSDVWSYGVLLWEIFSLGGSPYPGVQMDEDFCSRLKEGMRMRTPEYATPEIYQIMLDCWHKDPKERPRFAELVEKLGDLLQANVQQDGKDYIPLNAILTRNSGFTYSTPTFSEDLFKDGFADPHFHSGSSDDVRYVNAFKFMSLERIKTFEELSPNSTSMFEDYQLDTSTLLGSPLLKRFTWTETKPKASMKIDLRIASKSKEAGLSDLPRPSFCFSSCGHIRPVQDDESELGKESCCSPPPDYNSVVLYSSPPA
notes: VEGF receptor 1 (VEGFR-1, flt-1), endogenous in mouse aortic and venous endothelial cell lines, thy1-YFP mouse trigeminal ganglion neurons and mouse tissues; Endogenous protein; also called flt-1; Flt-1; source: endogenous, MAEC and MVEC lysates; endogenous, mouse tissue lysates (thoracic aorta, portal vein, dorsal root ganglia, trigeminal ganglia, cornea); endogenous, fixed MAEC, MVEC and …

Tests used:
[1] = molecular target: B1; test: proximity ligation; Duolink PLA on fixed MVEC; anti-VEGFR1 and anti-VEGFR2 with PLUS and MINUS probes (the same antibody with both probes for homodimers); signal only within 40 nm; settings: partners not purified
[2] = molecular target: the molecule itself; test: as above
[3] = molecular target: B1; test: proximity ligation; Duolink PLA on fixed mouse trigeminal ganglion (TG) neuronal cells; anti-VEGFR1 and anti-VEGFR2 with PLUS and MINUS probes (the same antibody with both probes for homodimers); signal only within 40 nm; settings: partners not purified
[4] = molecular target: the molecule itself; test: as above

Row | mean PLA fluorescence intensity per cell [1] | mean PLA fluorescence intensity per cell [3] | Binder | mean PLA fluorescence intensity per cell [2] | mean PLA fluorescence intensity per cell [4]
1 | 99600 | 268000 | VEGFR2 (mouse, endogenous in MAEC, MVEC, trigeminal ganglion neurons and mouse tissues) (receptor, UniProt P35918 20-1345, looked up, Endogenous protein; also called KDR; flk-1; source: endogenous, MAEC and MVEC lysates; endogenous, mouse tissue lysates (thoracic aorta, portal vein, dorsal root ganglia, trigeminal ganglia, cornea); endogenous, fixed MAEC, MVEC and trigeminal ganglion neuronal cells) ASVGLPGDFLHPPKLSTQKDILTILANTTLQITCRGQRDLDWLWPNAQRDSEERVLVTECGGGDSIFCKTLTIPRVVGNDTGAYKCSYRDVDIASTVYVYVRDYRSPFIASVSDQHGIVYITENKNKTVVIPCRGSISNLNVSLCARYPEKRFVPDGNRISWDSEIGFTLPSYMISYAGMVFCEAKINDETYQSIMYIVVVVGYRIYDVILSPPHEIELSAGEKLVLNCTARTELNVGLDFTWHSPPSKSHHKKIVNRDVKPFPGTVAKMFLSTLTIESVTKSDQGEYTCVASSGRMIKRNRTFVRVHTKPFIAFGSGMKSLVEATVGSQVRIPVKYLSYPAPDIKWYRNGRPIESNYTMIVGDELTIMEVTERDAGNYTVILTNPISMEKQSHMVSLVVNVPPQIGEKALISPMDSYQYGTMQTLTCTVYANPPLHHIQWYWQLEEACSYRPGQTSPYACKEWRHVEDFQGGNKIEVTKNQYALIEGKNKTVSTLVIQAANVSALYKCEAINKAGRGERVISFHVIRGPEITVQPAAQPTEQESVSLLCTADRNTFENLTWYKLGSQATSVHMGESLTPVCKNLDALWKLNGTMFSNSTNDILIVAFQNASLQDQGDYVCSAQDKKTKKRHCLVKQLIILERMAPMITGNLENQTTTIGETIEVTCPASGNPTPHITWFKDNETLVEDSGIVLRDGNRNLTIRRVRKEDGGLYTCQACNVLGCARAETLFIIEGAQEKTNLEVIILVGTAVIAMFFWLLLVIVLRTVKRANEGELKTGYLSIVMDPDELPLDERCERLPYDASKWEFPRDRLKLGKPLGRGAFGQVIEADAFGIDKTATCKTVAVKMLKEGATHSEHRALMSELKILIHIGHHLNVVNLLGACTKPGGPLMVIVEFCKFGNLSTYLRGKRNEFVPYKSKGARFRQGKDYVGELSVDLKRRLDSITSSQSSASSGFVEEKSLSDVEEEEASEELYKDFLTLEHLICYSFQVAKGMEFLASRKCIHRDLAARNILLSEKNVVKICDFGLARDIYKDPDYVRKGDARLPLKWMAPETIFDRVYTIQSDVWSFGVLLWEIFSLGASPYPGVKIDEEFCRRLKEGTRMRAPDYTTPEMYQTMLDCWHEDPNQRPSFSELVEHLGNLLQANAQQDGKDYIVLPMSETLSMEEDSGLSLPTSPVSCMEEEEVCDPKFHYDNTAGISHYLQNSKRKSRPVSVKTFEDIPLEEPEVKVIPDDSQTDSGMVLASEELKTLEDRNKLSPSFGGMMPSKSRESVASEGSNQTSGYQSGYHSDDTDTTVYSSDEAGLLKMVDAAVHADSGTTLRSPPV | 2.58e+06 | 706000
2 |  |  | B1 | 43300 | 2200
